Source: article PMC12464775, “Selective and Potent Peptide Binders of RNF43 for Wnt Signaling Inhibition” (ACS Central Science, 2025)

Molecular target: T1, extracellular domain (ECD) of the human RNF43 protein, biotinylated, Q68DV7
T1 chain: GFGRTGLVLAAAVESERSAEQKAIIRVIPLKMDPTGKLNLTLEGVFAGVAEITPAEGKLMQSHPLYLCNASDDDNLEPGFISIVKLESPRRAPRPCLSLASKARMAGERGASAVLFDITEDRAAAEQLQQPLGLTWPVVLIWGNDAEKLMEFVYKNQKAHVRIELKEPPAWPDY
Assay: SPR
Conditions: chain shown with the change;; parent: 1.1 ± 0.07 nM

EQCTSTQDLCHDASHVCCWPLDCRWAVKYQWFWDCIG [GUR-1.6.12.2 Y13A]
Kd: 36 nM
